# Source: IntAct's records for PubMed 25203555
# B1: Uncharacterized protein C1322.02 (Schizosaccharomyces pombe (strain ATCC 38366 / 972)), O94542 (parent)
# chain: MIESKGETAPSLNLNDVNVEENDAAQSFAEKVQRFRYQMKVHAAPRQKTLHSFLKKDNANIHDFTKVEKPHIRSSKSKVSYNSITSRVTKYFEEKNNSVDQLHSESLTPLSFGHTIPKKKPLLMTASVSEDSRVRVSKRQFKSKVVHPEIAISIAKRHKPKFPLSDELMNVEPGFHHSNIGCQITPYLWISSFRTNVYYLIGNEGDLLSQQVPSISGELNMLRGVCTRIDDDNRYDIEQAGSCFGMSVFPTSDSGEESFTTLESDPIVNCEHDEKKVADNLLVPQVMCSSNISTFFRSPGGKKLYHYLWKNSNALRISSNDLLEILLKHGVYVSLDTLHSWLQERNVNFEK
# partner: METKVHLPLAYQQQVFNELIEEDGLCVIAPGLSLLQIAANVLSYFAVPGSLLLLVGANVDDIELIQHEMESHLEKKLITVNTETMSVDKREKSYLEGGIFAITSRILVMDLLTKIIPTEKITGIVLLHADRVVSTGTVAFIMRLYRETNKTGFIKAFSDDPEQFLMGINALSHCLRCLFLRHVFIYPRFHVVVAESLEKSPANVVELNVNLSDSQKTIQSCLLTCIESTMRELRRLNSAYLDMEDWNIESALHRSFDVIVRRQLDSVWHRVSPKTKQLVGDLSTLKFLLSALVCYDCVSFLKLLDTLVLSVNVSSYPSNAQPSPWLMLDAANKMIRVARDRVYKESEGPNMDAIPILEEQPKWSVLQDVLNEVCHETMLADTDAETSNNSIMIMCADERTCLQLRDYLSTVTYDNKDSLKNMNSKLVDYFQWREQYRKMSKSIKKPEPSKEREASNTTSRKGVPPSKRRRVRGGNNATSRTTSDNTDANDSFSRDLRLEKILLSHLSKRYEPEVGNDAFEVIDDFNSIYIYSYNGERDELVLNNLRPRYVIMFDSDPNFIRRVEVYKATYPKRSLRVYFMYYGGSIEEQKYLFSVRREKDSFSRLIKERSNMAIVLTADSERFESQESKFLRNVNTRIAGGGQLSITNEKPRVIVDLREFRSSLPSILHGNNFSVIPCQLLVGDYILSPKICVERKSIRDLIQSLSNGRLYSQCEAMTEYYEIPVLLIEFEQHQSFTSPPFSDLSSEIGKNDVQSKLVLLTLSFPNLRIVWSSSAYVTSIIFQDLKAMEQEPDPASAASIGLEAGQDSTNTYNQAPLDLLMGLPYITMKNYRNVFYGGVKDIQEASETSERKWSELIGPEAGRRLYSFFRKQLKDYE
# B2: Uncharacterized protein C1322.02 (Schizosaccharomyces pombe (strain ATCC 38366 / 972)), O94542 (parent)
# chain: B1 chain
# partner: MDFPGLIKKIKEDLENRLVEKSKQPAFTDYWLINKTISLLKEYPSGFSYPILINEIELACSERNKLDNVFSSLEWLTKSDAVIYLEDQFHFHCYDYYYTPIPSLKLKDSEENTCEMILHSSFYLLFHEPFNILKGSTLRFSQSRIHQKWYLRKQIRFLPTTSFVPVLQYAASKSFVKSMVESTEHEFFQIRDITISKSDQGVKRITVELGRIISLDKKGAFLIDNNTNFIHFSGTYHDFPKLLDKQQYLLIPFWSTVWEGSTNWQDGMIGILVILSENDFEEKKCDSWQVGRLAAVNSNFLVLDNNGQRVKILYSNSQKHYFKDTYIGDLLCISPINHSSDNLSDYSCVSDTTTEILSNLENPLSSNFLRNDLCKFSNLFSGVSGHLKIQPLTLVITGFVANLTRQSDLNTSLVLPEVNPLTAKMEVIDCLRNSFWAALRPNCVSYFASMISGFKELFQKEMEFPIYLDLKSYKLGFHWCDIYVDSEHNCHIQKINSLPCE
# Variants of: B1
# Details: with rad16_schpo rad16, P36617
row,effect of a mutation on the interaction,Variant
1,disrupting interaction strength,A155D;E172A

# Variants of: B2
# Details: with cdc24_schpo cdc24, O75004
row,effect of a mutation on the interaction,Variant
1,decreasing interaction strength,S289A;S290A;I292A;F295A;F296A
